In article PMC3196576, “Probing the Functional Mechanism of Escherichia coli GroEL Using Circular Permutation” (PLoS ONE, 2011):

What was measured:
[1] = biological target: T1, GroEL R231W (E. coli, UniProt P0A6F5 1-548, R231W); assay: Proteinase K protection of BeFx football complexes, recovered by centrifugal concentration (100 kDa cutoff), SDS-PAGE; 0.5 µM GroEL 14-mer, 1.0 µM unfolded rhodanese, 1.1 µM GroES, 1 mM BeCl2, 10 mM NaF, 1 mM ATP; 30 mM Tris-HCl pH 7.2, 50 mM KCl, 10 mM Mg(CH3COO)2, 25°C; 1 µg/ml Proteinase K for 30 min; settings: both partners purified
T1 construct: GroEL, Escherichia coli, with Arg231 replaced by tryptophan; also called RW; source: purified according to the protocol of Machida et al. [34]; copies: 14

[2] = biological target: the molecule itself; assay: SEC; gel filtration profiles observed during purification (AKTA FPLC, 4°C); data not shown

binding result [1]	Binder	stoichiometry N [2]
binds	bovine rhodanese (enzyme, UniProt P00586 1-297, looked up, rhodanese (thiosulfate sulfurtransferase), bovine; Unfolded for 1 hr in 6 M guanidine hydrochloride at 25°C before it was added to GroEL; also called unfolded rhodanese; source: bought: Sigma) MVHQVLYRALVSTKWLAESVRAGKVGPGLRVLDASWYSPGTREARKEYLERHVPGASFFDIEECRDKASPYEVMLPSEAGFADYVGSLGISNDTHVVVYDGDDLGSFYAPRVWWMFRVFGHRTVSVLNGGFRNWLKEGHPVTSEPSRPEPAIFKATLNRSLLKTYEQVLENLESKRFQLVDSRAQGRYLGTQPEPDAVGLDSGHIRGSVNMPFMNFLTEDGFEKSPEELRAMFEAKKVDLTKPLIATCRKGVTACHIALAAYLCGKPDVAIYDGSWFEWFHRAPPETWVSQGKGGKA	
	GroEL CP254 (other, E. coli, start methionine and extraneous N-terminal residues (Met-Ala-Ala-Ala-Gln-Tyr); GroEL, E. coli, from Val254 to the original C-terminus; Val-Asp dipeptide linker (SalI site) joining the original C- and N-termini; GroEL, E. coli, from the original N-terminus minus the N-terminal methionine to Asp253 (Ala251-Glu252-Asp253); C-terminal residues after Asp253 (Val-Ala-Asn); Circular permutant; source: …) MAAAQYVEGEALATLVVNTMRGIVKVAAVKAPGFGDRRKAMLQDIATLTGGTVISEEIGMELEKATLEDLGQAKRVVINKDTTTIIDGVGEEAAIQGRVAQIRQQIEEATSDYDREKLQERVAKLAGGVAVIKVGAATEVEMKEKKARVEDALHATRAAVEEGVVAGGGVALIRVASKLADLRGQNEDQNVGIKVALRAMEAPLRQIVLNCGEEPSVVANTVKGGDGNYGYNAATEEYGNMIDMGILDPTKVTRSALQYAASVAGLMITTECMVTDLPKNDAADLGAAGGMGGMGGMGGMMVDAAKDVKFGNDARVKMLRGVNVLADAVKVTLGPKGRNVVLDKSFGAPTITKDGVSVAREIELEDKFENMGAQMVKEVASKANDAAGDGTTTATVLAQAIITEGLKAVAAGMNPMDLKRGIDKAVTAAVEELKALSVPCSDSKAIAQVGTISANSDETVGKLIAEAMDKVGKEGVITVEDGTGLQDELDVVEGMQFDRGYLSPYFINKPETGAVELESPFILLADKKISNIREMLPVLEAVAKAGKPLLIIAEDVAN	~14
	GroEL CP209 (other, E. coli, start methionine from the vector-derived ATG; GroEL, E. coli, from Glu209 to the original C-terminus; Val-Asp dipeptide linker (SalI site) joining the original C- and N-termini; GroEL, E. coli, from the original N-terminus minus the N-terminal methionine to Pro208; Circular permutant; source: E. coli JM109, purified (protocol of Machida et al. [34]); copies: 14) METGAVELESPFILLADKKISNIREMLPVLEAVAKAGKPLLIIAEDVEGEALATLVVNTMRGIVKVAAVKAPGFGDRRKAMLQDIATLTGGTVISEEIGMELEKATLEDLGQAKRVVINKDTTTIIDGVGEEAAIQGRVAQIRQQIEEATSDYDREKLQERVAKLAGGVAVIKVGAATEVEMKEKKARVEDALHATRAAVEEGVVAGGGVALIRVASKLADLRGQNEDQNVGIKVALRAMEAPLRQIVLNCGEEPSVVANTVKGGDGNYGYNAATEEYGNMIDMGILDPTKVTRSALQYAASVAGLMITTECMVTDLPKNDAADLGAAGGMGGMGGMGGMMVDAAKDVKFGNDARVKMLRGVNVLADAVKVTLGPKGRNVVLDKSFGAPTITKDGVSVAREIELEDKFENMGAQMVKEVASKANDAAGDGTTTATVLAQAIITEGLKAVAAGMNPMDLKRGIDKAVTAAVEELKALSVPCSDSKAIAQVGTISANSDETVGKLIAEAMDKVGKEGVITVEDGTGLQDELDVVEGMQFDRGYLSPYFINKP	~14
binds	GroES (natural protein, E. coli, UniProt P0A6F9 1-97, looked up, GroES cochaperonin, Escherichia coli; 7-mer; also called cochaperonin GroES; co-chaperonin; source: purified according to Iwasa et al. [35], with an 80°C heat treatment) MNIRPLHDRVIVKRKEVETKSAGGIVLTGSAAAKSTRGEVLAVGNGRILENGEVKPLDVKVGDIVIFNDGYGVKSEKIDNEEVLIMSESDILAIVEA	
